In US20240082356A1, “TREATMENT OF COPD BY STIMULATION OF STEM CELL MOBILIZATION” (Therapeutic Solutions International, Inc., priority 2022, published 2024):

System: neutrophil infiltration in COPD like inflammation
Assay: Neutrophil infiltration in elastase-induced COPD model
Format: in vivo
Conditions: female BALB/c mice injected with elastase (5 micrograms per mouse); G-CSF 10 micrograms per mouse every second day for one week and pterostilbene 40 mg/kg intraperitoneally; assessed on days 0, 7 and 14
Protocol: Female BALB/c mice, 10 per group, where injected with elastase (5 micrograms per mouse) to induce COPD like inflammation. Mice were given G-CSF (10 micrograms per mouse) every second day for one week and pterostilbene (40 mg/kg) intraperitoneally. Mice were sacrificed on days 0, 7, and 14 and assessed for neutrophil infiltration.

B1: G-CSF: stem cell mobilizer; colony stimulating factor (protein, UniProt P09919 31-207, looked up)
Granulocyte …: TPLGPASSLPQSFLLKCLEQVRKIQGDGAALQEKLVSECATYKLCHPEELVLLGHSLGIPWAPLSSCPSQALQLAGCLSQLHSGLFLYQGLLQALEGISPELGPTLDTLQLDVADFATTIWQQMEELGMAPALQPTQGAMPAFASAFQRRAGGVLVASHLQSFLEVSYRVLRHLAQP
Q: For B1, which “neutrophil infiltration in COPD Model” value is on record?
A: reduction of neutrophil infiltration
